In US20150344570A1 (published 2015):

Assays:
[1] = biological target: T1, FcγRIa extracellular domain with C-terminal His tag (human, UniProt P12314 16-292); experiment: SPR (Biacore), captured antibody, FcγR as analyte; relative binding
T1 construct: extracellular domain; expressed in FreeStyle293 cells; analyte in Biacore; also called FcgRI; 1a

[2] = biological target: T2, FcγRIIb extracellular domain with C-terminal His tag (human, UniProt P31994 43-217); experiment: as above
T2 construct: extracellular domain; expressed in FreeStyle293 cells; analyte in Biacore; also called FcgRIIb; 2b
T2 sequence (looked up): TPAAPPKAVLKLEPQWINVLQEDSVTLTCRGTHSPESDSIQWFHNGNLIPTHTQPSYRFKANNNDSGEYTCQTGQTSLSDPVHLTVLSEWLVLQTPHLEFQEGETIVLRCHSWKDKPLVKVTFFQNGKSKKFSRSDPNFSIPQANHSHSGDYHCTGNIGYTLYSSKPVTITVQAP

FcγRIa = biological target: T3, FcγRIa (human, UniProt P12314 16-292); experiment: SPR (Biacore); He Ab relative to HeCon Ab = 100
T3 construct: extracellular domain; also called FcgRI; 1a
Method in brief: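 On Biacore T100 at 25° C in HBS-EP+, FcγR extracellular domains flowed over test antibodies held by immobilized antigen peptide. Glycine-HCl 10 mM, pH 1.5 stripped captured antibody between cycles; values reported as binding relative to the control antibody.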

T3 sequence (P12314 16-292): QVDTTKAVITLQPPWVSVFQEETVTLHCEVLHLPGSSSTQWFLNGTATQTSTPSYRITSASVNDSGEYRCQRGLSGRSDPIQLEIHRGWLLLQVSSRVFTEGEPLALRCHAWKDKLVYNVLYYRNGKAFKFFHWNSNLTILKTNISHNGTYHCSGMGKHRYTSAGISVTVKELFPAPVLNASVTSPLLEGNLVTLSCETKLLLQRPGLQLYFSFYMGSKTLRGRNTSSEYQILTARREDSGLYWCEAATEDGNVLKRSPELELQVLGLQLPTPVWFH
T1 sequence (P12314 16-292): as above

Binder | He/Con_1a [1] | He/Con_2b [2] | He/Con_1a (FcγRIa)
GpH7-A5/GpH7-B3 variant S298_01G/GpL16-k0 (antibody, human IgG1, kappa, He Ab; IgG1, mutation in one H chain) heavy 1: not shown heavy 2: not shown light: DIVMTQSPLSLPVTPGEPASISCQASESLVHSNRNTYLHWYLQKPGQSPQLLIYKVSNRFSGVPDRFSGSGSGTDFTLKISRVEAEDVGVYYCSQNTHVPPTFGQGTKVEIERTVAAPSVFIFPPSDEQLKSGTASVVCLLNNFYPREAKVQWKVDNALQSGNSQESVTEQDSKDSTYSLSSTLTLSKADYEKHKVYACEVTHQGLSSPVTKSFNRGEC | 104 % of HeCon Ab (GpH7-A5/GpH7-B3/GpL16-k0 = 100) | 80.1 % of HeCon Ab (GpH7-A5/GpH7-B3/GpL16-k0 = 100) | –
GpH7-A5/GpH7-B3 variant S298_02A/GpL16-k0 (antibody, human IgG1, kappa, He Ab; IgG1, mutation in one H chain) heavy 1: not shown heavy 2: not shown light: DIVMTQSPLSLPVTPGEPASISCQASESLVHSNRNTYLHWYLQKPGQSPQLLIYKVSNRFSGVPDRFSGSGSGTDFTLKISRVEAEDVGVYYCSQNTHVPPTFGQGTKVEIERTVAAPSVFIFPPSDEQLKSGTASVVCLLNNFYPREAKVQWKVDNALQSGNSQESVTEQDSKDSTYSLSSTLTLSKADYEKHKVYACEVTHQGLSSPVTKSFNRGEC | 107 % of HeCon Ab (GpH7-A5/GpH7-B3/GpL16-k0 = 100) | 73.4 % of HeCon Ab (GpH7-A5/GpH7-B3/GpL16-k0 = 100) | –
GpH7-A5/GpH7-B3 variant P271_15Y/GpL16-k0 (antibody, human IgG1, kappa, also called He Ab P271_15Y) heavy 1: not shown heavy 2: not shown light: DIVMTQSPLSLPVTPGEPASISCQASESLVHSNRNTYLHWYLQKPGQSPQLLIYKVSNRFSGVPDRFSGSGSGTDFTLKISRVEAEDVGVYYCSQNTHVPPTFGQGTKVEIERTVAAPSVFIFPPSDEQLKSGTASVVCLLNNFYPREAKVQWKVDNALQSGNSQESVTEQDSKDSTYSLSSTLTLSKADYEKHKVYACEVTHQGLSSPVTKSFNRGEC | – | – | 103 % of control
GpH7-A5/GpH7-B3 variant P271_16H/GpL16-k0 (antibody, human IgG1, kappa, also called He Ab P271_16H) heavy 1: not shown heavy 2: not shown light: DIVMTQSPLSLPVTPGEPASISCQASESLVHSNRNTYLHWYLQKPGQSPQLLIYKVSNRFSGVPDRFSGSGSGTDFTLKISRVEAEDVGVYYCSQNTHVPPTFGQGTKVEIERTVAAPSVFIFPPSDEQLKSGTASVVCLLNNFYPREAKVQWKVDNALQSGNSQESVTEQDSKDSTYSLSSTLTLSKADYEKHKVYACEVTHQGLSSPVTKSFNRGEC | – | – | 102 % of control
GpH7-A5/GpH7-B3 variant P329_01G/GpL16-k0 (antibody, human IgG1, kappa, also called He Ab P329_01G) heavy 1: not shown heavy 2: not shown light: DIVMTQSPLSLPVTPGEPASISCQASESLVHSNRNTYLHWYLQKPGQSPQLLIYKVSNRFSGVPDRFSGSGSGTDFTLKISRVEAEDVGVYYCSQNTHVPPTFGQGTKVEIERTVAAPSVFIFPPSDEQLKSGTASVVCLLNNFYPREAKVQWKVDNALQSGNSQESVTEQDSKDSTYSLSSTLTLSKADYEKHKVYACEVTHQGLSSPVTKSFNRGEC | – | – | 101 % of control
GpH7-A5/GpH7-B3 variant P329_02A/GpL16-k0 (antibody, human IgG1, kappa, also called He Ab P329_02A) heavy 1: not shown heavy 2: not shown light: DIVMTQSPLSLPVTPGEPASISCQASESLVHSNRNTYLHWYLQKPGQSPQLLIYKVSNRFSGVPDRFSGSGSGTDFTLKISRVEAEDVGVYYCSQNTHVPPTFGQGTKVEIERTVAAPSVFIFPPSDEQLKSGTASVVCLLNNFYPREAKVQWKVDNALQSGNSQESVTEQDSKDSTYSLSSTLTLSKADYEKHKVYACEVTHQGLSSPVTKSFNRGEC | – | – | 102 % of control
GpH7-A5/GpH7-B3 variant Q295_09D/GpL16-k0 (antibody, human IgG1, kappa, also called He Ab Q295_09D) heavy 1: not shown heavy 2: not shown light: DIVMTQSPLSLPVTPGEPASISCQASESLVHSNRNTYLHWYLQKPGQSPQLLIYKVSNRFSGVPDRFSGSGSGTDFTLKISRVEAEDVGVYYCSQNTHVPPTFGQGTKVEIERTVAAPSVFIFPPSDEQLKSGTASVVCLLNNFYPREAKVQWKVDNALQSGNSQESVTEQDSKDSTYSLSSTLTLSKADYEKHKVYACEVTHQGLSSPVTKSFNRGEC | – | – | 100 % of control
GpH7-A5/GpH7-B3 variant Q295_11K/GpL16-k0 (antibody, human IgG1, kappa, also called He Ab Q295_11K) heavy 1: not shown heavy 2: not shown light: DIVMTQSPLSLPVTPGEPASISCQASESLVHSNRNTYLHWYLQKPGQSPQLLIYKVSNRFSGVPDRFSGSGSGTDFTLKISRVEAEDVGVYYCSQNTHVPPTFGQGTKVEIERTVAAPSVFIFPPSDEQLKSGTASVVCLLNNFYPREAKVQWKVDNALQSGNSQESVTEQDSKDSTYSLSSTLTLSKADYEKHKVYACEVTHQGLSSPVTKSFNRGEC | – | – | 101 % of control
GpH7-A5/GpH7-B3 variant Q295_15Y/GpL16-k0 (antibody, human IgG1, kappa, also called He Ab Q295_15Y) heavy 1: not shown heavy 2: not shown light: DIVMTQSPLSLPVTPGEPASISCQASESLVHSNRNTYLHWYLQKPGQSPQLLIYKVSNRFSGVPDRFSGSGSGTDFTLKISRVEAEDVGVYYCSQNTHVPPTFGQGTKVEIERTVAAPSVFIFPPSDEQLKSGTASVVCLLNNFYPREAKVQWKVDNALQSGNSQESVTEQDSKDSTYSLSSTLTLSKADYEKHKVYACEVTHQGLSSPVTKSFNRGEC | – | – | 102 % of control
GpH7-A5/GpH7-B3 variant Q295_16H/GpL16-k0 (antibody, human IgG1, kappa, also called He Ab Q295_16H) heavy 1: not shown heavy 2: not shown light: DIVMTQSPLSLPVTPGEPASISCQASESLVHSNRNTYLHWYLQKPGQSPQLLIYKVSNRFSGVPDRFSGSGSGTDFTLKISRVEAEDVGVYYCSQNTHVPPTFGQGTKVEIERTVAAPSVFIFPPSDEQLKSGTASVVCLLNNFYPREAKVQWKVDNALQSGNSQESVTEQDSKDSTYSLSSTLTLSKADYEKHKVYACEVTHQGLSSPVTKSFNRGEC | – | – | 102 % of control
